Results taken from patent US20240043859A1, “HERBICIDE-RESISTANT PROTEIN, AND GENE AND USE THEREOF” (QINGDAO KINGAGROOT CHEMICAL COMPOUND CO., LTD., priority 2020, published 2024).
“Also recorded” adds a separate entry of the source.

B1: QYD21: AAD-like enzyme, SEQ ID NO. 41 (protein)
chain: MTTIETKPLTPCFGVEVSGMTLSEVSKGHDFARLRDLFEEHSALLFRAQEISNEEHMALAQLFGPIEDRKADERKPGEAFEVPEVSNVQKDGTTSGEMDLHTLNLKSNFLWHSDSTFLPTPALTNILIGRVVTTEGGATELASTRAAWAAMPEELKSRIRGRGIWHRYSHSRRKISPELAKLPMFNKWPDQHWSAVWPNPVNGREGLYIASHAFKVDGYDEAESQELLDELMAFCTQPEFTYAHQWNVGDVLIWDQRAVLHRGTPWPYEQPRTLSSICVSVTEADGIGSIRMPA
modifications: Synthetic polypeptide, QYD21, D21
B2: QYD32: AAD-like enzyme, SEQ ID NO. 63 (protein)
chain: MSQMTFEPLSGPTFGARVHGVKLTAMDDAAFRELHDNWLEYGLLIVPEQFLTREEQIAFARRFGDLEFEIAEIGNMRDDGSLRPDDGSDEMMKINRGNMGWHHDSTYMPVQAKGAVFSAEIVPQEGGATGFADMRAAYDELDDAMKARIENLRAHHSLHHSQGKVGHKTKPVKDGKVNAGGTFGGYGLHDGPVSVRPLVKVHPETGRKNLLVGRHAYDIIGMSSEESEKLLQDLVDFACQPPRIYHHQWAPGDAVIWDNRRLMHQATPWPFDQARRMWHSRIAGDPATEAAMAA
modifications: Synthetic polypeptide, QYD32, D32
B3: QYD26: AAD-like enzyme, SEQ ID NO. 51 (protein)
chain: MSEFIYTLPSHNRAASYSHIRVTPTTGAIGADVENLDLTRLSDEGFAELRQALLAHKVIFIRDQALSVADLERVTQHLGEFGREPYVTCMADHPHVVHVVKEASEKAPFVFGGAWHTDWTFQERPPAFTLLYGHDIPPYGGDTCYANLALAYEWLSPGMQALLENLDAVHSPEMAYGVNAKHNALLENMAINYGSDTSADERSHPLVTRHPETGKKVLFINPAYTTGIKGLRTEESRPLLDYLFKLATSEAFTCRMRWRQGTLAIWDNRSTWHMPVADYHGMRREMFRTTVIGEVPSR
modifications: Synthetic polypeptide, QYD26, D26
B4: QYD54: AAD-like enzyme, SEQ ID NO. 107 (protein)
chain: MARMFDIAPLDATFGAVVTGVKVTRIDDATWRDLHAAWLEYALLIFPGQFLSRAEQIAFAKRFGPLEFEMAPISNVKADGTIRIEADNDDVVKVLKGNMGWHADSTYMPVQAKGAVFSAEVVPGEGGRTGWADMRAAYDALDAARRVRVESLTAYHSLYYSQAKLGHQPKRGSDYSGYGFHDGPVPRRPLVKVHPETGRKSLLIGRHAHNIPGMDVAESTQFLESLVDFACQPPRIYHHQWTAGDAVVWDNRCLLHRATPWDMTKPRVMWHSRIAGDPVSEASLG
modifications: Synthetic polypeptide, QYD54, D54
B5: QYD62: AAD-like enzyme, SEQ ID NO. 123; 100.00% identical to US20140141044-13793 (for medical field) (protein)
chain: MTIAIRQLHKHFVGEVSGLDLRKPLTADEARDIEAAMDKYAVLVFHDQDITDEQQMAFALNFGQREDARGGTVTKAKDYRLQSGLNDVSNLGKDGKPLAKDSRTHLFNLGNCLWHSDSSFRPIPAKFSLLSARVVNPKGGNTEFADMRAAYDALDDETKTEIEDLVCEHSLMYSRGSLGFTEYTDEEKEMFKPVLQRLVRTHPVHRRKSLYLSSHAGKVVGMSVPEGRLLLRDLNEHATQPEFVYVHKWKLHDLVMWDNRQTMHRVRRYDQSQPRDMRRATVAGTEPTVQQQAAE
modifications: Synthetic polypeptide, QYD62, D62
B6: QYD33: AAD-like enzyme, SEQ ID NO. 65 (protein)
chain: MSEHFDVEPLDASFGARITGLKLTEMSDAAFDALYETWLEHGLLLFPDQHMEPEAQVDVARRFGPLEVKLFAISNLKDDGSVRTSDEDDLVKILKGNMGWHHDSTYMPLQAKGAVFSAHVVPSEGGETGFADMRQAWDALDDDMKRRLEGLTALHSLHYSQMKAGFRRKEKDSEYIGYGLDERPPVRRQMVKVHPETGRKSLLVGRHAFGVSGMSEKESEEFVDGLNEFAGSGDWTYHHKWTPGEVVLWDNRCLMHRACPWDMTKPRVMYHSRIAGDPVSEAEVAA
modifications: Synthetic polypeptide, QYD33, D33
B7: QYD35: AAD-like enzyme, SEQ ID NO. 69 (protein)
chain: MSARPFTVEPLPATFGARITGLDLAALDDATFAALYDAWLEYALLIFPGAGLSTAEQVTFARRFGDMEFDIAPLSNVRKDGSLRADDGTDDVVKVLRGNMGWHADSTYMPVQAKGAVFSAHVVPEEGGETGWADMRAAYDALDDDLRRRIEGLSAHHSLVHSQARLGHAHGTDSEYSGYGFHDEAPLRPLVKVHPETGRRSLLIGRHAYGIPGLEETASERLLDELVDFACRPPRVYHHRWQVGDVVLWDNRCLLHRACPWDMSRPRVMYHSRIAGDPVTEAGLAGQSEQPSASGS
modifications: Synthetic polypeptide, QYD35, D35

Assays:
[1] = Chromogenic reaction of degrading herbicides in bacteria: 2,4-D; type: cell-based, Escherichia coli; conditions: recombinant E. coli expressing the gene, 2,4-D added to the medium, red = phenols
Method: (§1) To transform the plasmids to be tested, an AAD12-expressing plasmid and a blank control plasmid pET15b were respectively transformed into the protein expression E. coli BL21(DE3) strains. A monoclone was selected and inoculated in a 10 ml centrifuge tube with 3 ml LB medium, and cultivated at 37° C., 200 rpm for 6-8 hours. The culture medium was added with 0.1 mM IPTG and 2 mM α-ketoglutaric acid, and then 0.5 mM 2,4-D. The temperature was switched to 28° C. and the cultivation continued overnight. In the next morning, 200 μL of each bacteria solution was taken and centrifuged to precipitate thallus, 180 μL of the supernatant was taken and added in a 96-well plate, and 20 μL of borate buffer of pH 10 was added. Then the mixture was added with 2 μL of 8% potassium ferricyanide and mixed well, followed by adding 2 μL of 2% 4-aminoantipyrine, and placed at room temperature for 5 min to observe the color and detect the A510 value.
The bacteria solution also appeared red when 2,4-D was directly added into the medium of AAD12-expressing bacteria, as shown in FIG. 1.
2,4-D was added into these bacteria solutions of AAD gene-expressing recombinant E. coli and cultivation was continued for color development.

[2] = type: cell-based, Escherichia coli
Method: as §1, with “The culture medium was added with 0.1 mM IPTG and 2 mM α-ketoglutaric acid, and then 0.5 mM 2,4-D.” left out, “value. […]” for “value.”

Arabidopsis thaliana = test: Herbicide resistance of transgenic Arabidopsis thaliana seedlings on plate medium (root growth); type: in vivo; conditions: Arabidopsis overexpressing the gene
Method: Expression in Arabidopsis thaliana was regulated by its AtUbi10 Arabidopsis thaliana ubiquitin promoter and the MAS (mannopine synthase) terminator. Hygromycin resistance gene (HygR=hpt) served as the selection marker.
Preparation of Agrobacterium infection solution: An activated Agrobacterium (GV3101) monoclone was picked and inoculated in 30 ml YEP liquid medium [yeast powder 10 g/L, tryptone 10 g/L, NaCl 5 g/L, 25 mg/L Rifampicin and 50 mg/L Kanamycin], shaking-cultured at 200 rmp/min, 28° C. overnight until the OD600 was about 1.0-1.5, then centrifuged at 6000 rmp/min for 10 min to collect the bacteria, and the supernatant was discarded. Arabidopsis thaliana infection solution (sucrose 50 g/L, Silwet L-77 300 μL/L, no need to adjust pH) was used to resuspend the cells to OD600=0.8 for later use.
Genetic transformation of Arabidopsis thaliana by flower dipping: Before transformation of Arabidopsis thaliana plants, attentions were paid to whether the plants were growing well, the inflorescences were abundant, and no stress response occurred. The first transformation was performed when plants were about 20 cm high. Plants could be properly watered if the soil was dry. The grown siliques were cut off with scissors the day before transformation. The inflorescences of the plants to be transformed were soaked in the above-mentioned Agrobacterium solution for 30 seconds to 1 minute, which was stirred gently during the period. And a layer of liquid film should appear on the infiltrated plant. The transformed plants were cultured in a dark environment for 24 hours, and then taken out and grown in a normal light environment. A second transformation could be performed in the same way a week later.
Seeds were treated with disinfectant for 5 min, washed with sterile water for 5 times and then one part was spread on MS transgenic screening medium (containing 30 μg/mL hygromycin, 100 μg/mL carbenicillin) to screen transgenic seedlings, and the other part was spread on MS medicated medium [containing 250 μg/mL Cefotaxime sodium and 0.3 μM 2,4-D] to screen herbicide-resistant seedlings at mean time. The petri dish spread with seeds was placed at 4° C. for vernalization for 3 days, and taken out to a illumination incubator for cultivation (temperature of 22° C., 16 hours of light, 8 hours of darkness, light intensity of 100-150 μmol/m^2/s, humidity of 75%). After one week, it was observed that the roots of the wild-type control seedlings were not elongated and their growth was inhibited, while the transgenic seedlings had normal root growth, showing drug resistance. The transgenic positive seedlings and herbicide-resistant seedlings were photographed and transplanted into small pots filled with soil for cultivation.
The transgenic lines with the nine vectors, pQY2309, pQY2310, pQY2311, pQY2312, pQY2313, pQY2314, pQY2315, pQY2316 and pQY2317, overexpressing AAD gene in the T2 generation were further tested on plate medium for their resistance to 2,4-D, 2,4-DB sodium and MCPA herbicide. Two events were tested for each transformant.

Molecule	Chromogenic reaction of degrading herbicides in bacteria: 2,4-D [1]	Chromogenic reaction of degrading herbicides in bacteria: MCPA [2]	Resistance of transgenic Arabidopsis thaliana: 2,4-D (Arabidopsis thaliana)	also measured
B1	Yes	Yes	Yes	Chromogenic reaction of degrading herbicides in bacteria: 2,4-D ([1]; listed as D21): could degrade 2,4-D; also recorded: capable of degrading 2,4-D
B2	Yes	NO	Yes	Chromogenic reaction of degrading herbicides in bacteria: 2,4-D ([1]; listed as D32): red reactions
B3	Yes	Yes	Yes	Chromogenic reaction of degrading herbicides in bacteria: 2,4-D ([1]; listed as D26): red reactions
B4	Yes	Yes	–	Chromogenic reaction of degrading herbicides in bacteria: 2,4-D ([1]; listed as D54): could degrade 2,4-D; also recorded: capable of degrading 2,4-D
B5	Yes	Yes	–	Chromogenic reaction of degrading herbicides in bacteria: 2,4-D ([1]; listed as D62): could degrade 2,4-D; also recorded: capable of degrading 2,4-D
B6	Yes	NO	–	Chromogenic reaction of degrading herbicides in bacteria: 2,4-D ([1]; listed as D33): red reactions
B7	Yes	NO	–	Chromogenic reaction of degrading herbicides in bacteria: 2,4-D ([1]; listed as D35): red reactions
